Where two headings read alike, the source gives them in different places.

Assay [1] concerns the target T1, mouse plasma kallikrein (mouse, UniProt P26262 20-638, limits assumed).
T1 construct: also called mouse pKal; rodent pKal
Nature of the assay: apparent inhibition constant (Ki,app) from enzyme inhibition of rodent pKal.
T1 sequence (P26262 20-638 limits assumed): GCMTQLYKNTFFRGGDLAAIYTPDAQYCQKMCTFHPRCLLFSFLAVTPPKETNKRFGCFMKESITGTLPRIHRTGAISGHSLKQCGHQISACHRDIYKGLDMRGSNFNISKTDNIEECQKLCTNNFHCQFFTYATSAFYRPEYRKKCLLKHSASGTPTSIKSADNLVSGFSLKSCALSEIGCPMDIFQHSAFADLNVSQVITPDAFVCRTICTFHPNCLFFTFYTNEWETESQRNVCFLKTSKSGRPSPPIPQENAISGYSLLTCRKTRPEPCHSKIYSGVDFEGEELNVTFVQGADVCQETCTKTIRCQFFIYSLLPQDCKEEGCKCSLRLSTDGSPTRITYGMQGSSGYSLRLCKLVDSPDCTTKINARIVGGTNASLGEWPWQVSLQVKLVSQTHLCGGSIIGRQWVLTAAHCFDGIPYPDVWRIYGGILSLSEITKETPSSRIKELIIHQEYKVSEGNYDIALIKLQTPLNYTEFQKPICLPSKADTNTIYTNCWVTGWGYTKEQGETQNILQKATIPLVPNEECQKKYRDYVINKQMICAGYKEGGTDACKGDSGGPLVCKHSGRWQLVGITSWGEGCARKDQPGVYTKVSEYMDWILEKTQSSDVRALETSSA

The target of assay [2] is T2, human plasma kallikrein (human, UniProt P03952 20-390; P03952 391-638).
T2 construct: two disulfide-linked chains; also called pKal; human pKal
Nature of the assay: apparent inhibition constant (Ki,app) from enzyme inhibition of human pKal; Fab.
T2 sequence (P03952 20-390, chain 1 of 2): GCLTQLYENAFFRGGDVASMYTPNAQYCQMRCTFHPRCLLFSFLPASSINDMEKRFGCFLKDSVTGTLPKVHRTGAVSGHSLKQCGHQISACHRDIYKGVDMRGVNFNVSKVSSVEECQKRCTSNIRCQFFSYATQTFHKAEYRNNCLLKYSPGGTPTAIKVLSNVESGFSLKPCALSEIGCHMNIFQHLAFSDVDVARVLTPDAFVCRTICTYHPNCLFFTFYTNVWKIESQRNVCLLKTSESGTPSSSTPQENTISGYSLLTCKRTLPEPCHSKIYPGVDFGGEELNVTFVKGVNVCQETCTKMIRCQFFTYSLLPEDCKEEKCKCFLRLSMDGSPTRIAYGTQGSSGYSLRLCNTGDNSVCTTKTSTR
T2 sequence (P03952 391-638, chain 2 of 2): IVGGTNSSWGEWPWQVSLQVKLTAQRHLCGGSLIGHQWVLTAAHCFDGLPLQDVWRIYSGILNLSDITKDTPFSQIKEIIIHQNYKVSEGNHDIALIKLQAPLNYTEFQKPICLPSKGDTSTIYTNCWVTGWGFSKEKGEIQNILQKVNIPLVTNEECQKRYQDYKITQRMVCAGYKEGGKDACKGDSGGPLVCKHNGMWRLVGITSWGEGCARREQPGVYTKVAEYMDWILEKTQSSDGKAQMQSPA

Assay [3] concerns the target T3, human plasma kallikrein (active form) (human, UniProt P03952 20-390; P03952 391-638).
T3 construct: also called pKal; human pKal
Nature of the assay: apparent Ki (Ki,app), inhibition of human pKal enzyme activity.

Assay [4] addresses T4, mouse plasma kallikrein (mouse, UniProt P26262 20-638, limits assumed).
T4 construct: also called mouse pKal
The assay is described as follows: apparent Ki (Ki,app), inhibition of rodent pKal enzyme activity.
T4 sequence (P26262 20-638 limits assumed): as the sequence (P26262 20-638 limits assumed) above

In assay [5] the target is T5, human plasma kallikrein (human, UniProt P03952 20-390; P03952 391-638).
T5 construct: two disulfide linked chains; also called pKal; human pKal
Nature of the assay: Ki,app as an IgG, steady state enzyme kinetics, inhibition of human pKal.
T5 sequence (P03952 20-390, chain 1 of 2): as the sequence (P03952 20-390, chain 1 of 2) above
T5 sequence (P03952 391-638, chain 2 of 2): as the sequence (P03952 391-638, chain 2 of 2) above

Assay [6] concerns the target T5, human plasma kallikrein. Nature of the assay: Ki,app of IgG, enzyme inhibition of human pKal.
The target in assay [7] is T2, human plasma kallikrein. Nature of the assay: apparent inhibition constant (Ki,app) from enzyme inhibition of human pKal; IgG.
The target of assay [8] is T6, rat plasma kallikrein (rat, UniProt P14272 20-638, limits assumed).
T6 construct: also called rat pKal
Nature of the assay: apparent Ki (Ki,app), inhibition of rodent pKal enzyme activity.
T6 sequence (P14272 20-638 limits assumed): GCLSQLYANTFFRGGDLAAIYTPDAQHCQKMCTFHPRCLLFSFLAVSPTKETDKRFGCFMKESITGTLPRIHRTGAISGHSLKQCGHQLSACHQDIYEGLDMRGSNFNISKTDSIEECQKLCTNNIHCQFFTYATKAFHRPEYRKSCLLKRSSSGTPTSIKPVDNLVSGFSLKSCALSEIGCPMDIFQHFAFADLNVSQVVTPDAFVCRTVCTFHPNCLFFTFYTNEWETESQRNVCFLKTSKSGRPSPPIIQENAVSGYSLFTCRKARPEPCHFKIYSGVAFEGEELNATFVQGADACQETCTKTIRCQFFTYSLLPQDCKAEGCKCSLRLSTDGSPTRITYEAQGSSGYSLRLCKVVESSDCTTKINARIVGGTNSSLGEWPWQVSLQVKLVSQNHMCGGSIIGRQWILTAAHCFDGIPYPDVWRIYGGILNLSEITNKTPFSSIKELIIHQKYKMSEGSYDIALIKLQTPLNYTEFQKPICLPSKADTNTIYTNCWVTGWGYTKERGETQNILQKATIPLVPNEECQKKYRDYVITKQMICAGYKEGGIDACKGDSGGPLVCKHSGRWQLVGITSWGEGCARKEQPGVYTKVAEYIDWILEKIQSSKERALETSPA

In assay [9] the target is T4, mouse plasma kallikrein. Nature of the assay: apparent Ki (Ki,app), inhibition of mouse pKal enzyme activity. As to the method:
(§1) Apparent Inhibition constants (K_{i,app} values) were measured by pre-incubating enzyme and inhibitor solutions prior to initiating the reactions with substrate. Enzyme and inhibitor were pre-incubated for 2 hours at 30° C. in a 96-well plate by adding 10 μL of a 10× enzyme solution and 10 μL of 10× inhibitor solutions to 70 μL of reaction buffer. Reactions were initiated by the addition of 10 μL of a 10× concentrated stock of substrate, and were monitored at 30° C. in a fluorescence plate reader with the excitation and emission wavelengths set at 360 nm/460 nm, respectively. Kinetic data were acquired by the increase in fluorescence, and initial rates for each condition were plotted against the total inhibitor concentration. The data was fit to the following equation for tight binding inhibitors: […]

Assay [10] deals with T3, human plasma kallikrein (active form). Nature of the assay: apparent Ki (Ki,app), inhibition of human pKal enzyme activity. As to the method:
as §1
This is another data set of the same source.

Assay [11] addresses T5, human plasma kallikrein. The assay is described as follows: Ki,app, enzyme inhibition of pKal, Fab.
In assay [12] the target is T5, human plasma kallikrein. Nature of the assay: Ki,app, enzyme inhibition of pKal, IgG.
Assay [13] concerns the target T7, pKal catalytic domain Mutant 2 (human, UniProt P03952 391-638).
T7 construct: Expressed in Pichia pastoris, purified by IMAC; not shown: His tag fusion
Nature of the assay: enzyme inhibition, Ki,app on mutant and wild type pKal catalytic domain.

Assay [14] concerns the target T8, rat plasma kallikrein (rat, UniProt P14272 20-638, limits assumed).
T8 construct: also called rat pKal; rodent pKal
The assay is described as follows: apparent inhibition constant (Ki,app) from enzyme inhibition of rodent pKal.
T8 sequence (P14272 20-638 limits assumed): as above

T3 sequence (P03952 20-390, chain 1 of 2): as the sequence (P03952 20-390, chain 1 of 2) above
T3 sequence (P03952 391-638, chain 2 of 2): as the sequence (P03952 391-638, chain 2 of 2) above
T7 sequence (P03952 other isoform, or with tags, fused parts or gaps mutant limits assumed): as the sequence (P03952 391-638, chain 2 of 2) above, with R161A, Q163A, Y165A, T168A, R170A counted along it

B1: M142-H08 (Fab) (Fab, V domains shown)
VH: EVQLLESGGGLVQPGGSLRLSCAASGFTFSAYSMIWVRQAPGKGLEWVSYIRPSGGRTTYADSVKGRFTISRDNSKNTLYLQMNSLRAEDTAVYYCARGGLLLWFRELKSNYFDYWGQGTLVTVSS
VL: DIQMTQSPSSLSAFVGDRVTITCRASQPIDNYLNWYHQKPGKAPKLLIYAASRLQSGVPSRLSGSGFGTDFTLTISSLQPEDFGNYYCQQSYTVPYTFGGGTKVEIR
notes: Fab; printed HC runs into the start of CH1
As to B1, the Ki with mouse plasma kallikrein [1] was around 1 nM; in the assay with human plasma kallikrein [2], 0.6 nM.

B2: X67-D03 (antibody, V domains shown)
VH: EVQLLESGGGLVQPGGSLRLSCAASGFTFSAYSMIWVRQAPGKGLEWVSYIRPSGGRTTYADSVKGRFTISRDNSKNTLYLQMNSLRAEDTAVYYCARGGLLLWNRELKSNYFDYWGQGTLVTVSS
VL: DIQMTQSPSSLSAFVGDRVTITCRASQPIDNYLNWYHQKPGKAPKLLIYAASRLQSGVPSRLSGSGFGTDFTLTISSLQPEDFGNYYCQQSYTVPYTFGGGTKVEIR
notes: Tested as IgG; Single point mutant (F to N in HC CDR3) of M142-H08; also called X67-D03 (IgG); 559A-X67-D03
For the molecule B2, the Ki was found to be 0.1 nM in assay [3] and 0.7 nM in the assay with mouse plasma kallikrein [4].

B3: X67-D03 (IgG) (antibody, V domains shown)
VH: EVQLLESGGGLVQPGGSLRLSCAASGFTFSAYSMIWVRQAPGKGLEWVSYIRPSGGRTTYADSVKGRFTISRDNSKNTLYLQMNSLRAEDTAVYYCARGGLLLWNRELKSNYFDYWGQGTLVTVSS
VL: DIQMTQSPSSLSAFVGDRVTITCRASQPIDNYLNWYHQKPGKAPKLLIYAASRLQSGVPSRLSGSGFGTDFTLTISSLQPEDFGNYYCQQSYTVPYTFGGGTKVEIR
notes: printed HC runs into CH1; also called 559A-X67-D03
For B3, the Ki with human plasma kallikrein [5] and with human plasma kallikrein [6] was 0.1 nM in each case.

B4: X67-G04 (IgG) (antibody, V domains shown)
VH: EVQLLESGGGLVQPGGSLRLSCAASGFTFSAYSMIWVRQAPGKGLEWVSYIRPSGGRTTYADSVKGRFTISRDNSKNTLYLQMNSLRAEDTAVYYCARGGLLLWARELKSNYFDYWGQGTLVTVSS
VL: DIQMTQSPSSLSAFVGDRVTITCRASQPIDNYLNWYHQKPGKAPKLLIYAASRLQSGVPSRLSGSGFGTDFTLTISSLQPEDFGNYYCQQSYTVPYTFGGGTKVEIR
notes: printed HC runs into CH1
As to B4, the Ki in the assay with human plasma kallikrein [5] and with human plasma kallikrein [6] was 0.35 nM each time.

B5: M160-G12 (IgG) (antibody, V domains shown)
VH: EVQLLESGGGLVQPGGSLRLSCAASGFTFSHYLMTWVRQAPGKGLEWVSYISPSGGHTIYADSVKGRFTISRDNSKNTLYLQMNSLRAEDTAVYYCARVARGIAARSRTSYFDYWGQGTLVTVSS
VL: DIQMTQSPSFLSASVGDRVTITCRASQGISSYLAWYQQKPGKAPKLLIYAASTLQSGVPSRFSGSGSGTEFTLTISSLQPEDFATYYCQQLNSYPLTFGGGTKVEIK
notes: Human IgG; also called R84-D02
Consider B5, for which the Ki with human plasma kallikrein [7] is 5.6 nM; in the assay with mouse plasma kallikrein [1], below 1 nM.

B6: X81-B01 (antibody, V domains shown)
VH: EVQLLESGGGLVQPGGSLRLSCAASGFTFSHYLMTWVRQAPGKGLEWVSYISPSGGHTIYADSVKGRFTISRDNSKNTLYLQMNSLRAEDTAVYYCARVARGIAARSRTSYFDYWGQGTLVTVSS
VL: EIVLTQSPGTLSLSPGERATLSCRTSQFVNSNYLAWYQQKPGQAPRLLIYGASSRATGIPDRFSGSGSGTDFTLTISRLEPEDFAVYYCQQSSRTPWTFGQGTKVEIK
notes: also called X81-B01 (IgG); 559A-X81-B01
In the case of B6, the Ki in assay [3] was found to be 0.2 nM; with rat plasma kallikrein [8], 0.14 nM; with mouse plasma kallikrein [4], 0.011 nM; with mouse plasma kallikrein [9], 0.011 nM; in [10] it was 0.1 nM.

B7: X63-G06 (Fab, V domains shown)
VH: EVQLLESGGGLVQPGGSLRLSCAASGFTFSHYLMTWVRQAPGKGLEWVSYISPSGGHTIYADSVKGRFTISRDNSKNTLYLQMNSLRAEDTAVYYCARVARGIAARSRTSYFDYWGQGTLVTVSS
VL: DIQMTQSPGTLSLSPGERATLSCRTSQFVNSNYLAWYQQTPGQAPRLLIYGASSRATGIPDRFSGTGYGTDFTLTISRLEPEDYGTYYCQQSSRTPWTFGQGTRVEIK
notes: Non-germlined Fab discovered using ROLIC, same HC but different LC as M160-G12; also called X63-G06 (Fab)
With B7, the Ki with human plasma kallikrein [11] was determined as 0.4 nM.

B8: X81-B01 (antibody, V domains shown)
VH: EVQLLESGGGLVQPGGSLRLSCAASGFTFSHYLMTWVRQAPGKGLEWVSYISPSGGHTIYADSVKGRFTISRDNSKNTLYLQMNSLRAEDTAVYYCARVARGIAARSRTSYFDYWGQGTLVTVSS
VL: EIVLTQSPGTLSLSPGERATLSCRTSQFVNSNYLAWYQQKPGQAPRLLIYGASSRATGIPDRFSGSGSGTDFTLTISRLEPEDFAVYYCQQSSRTPWTFGQGTKVEIK
notes: also called X81-B01 (IgG)
As for B8, the Ki with human plasma kallikrein [12] is 0.2 nM.

B9: M6-D09 (antibody, V domains shown)
VH: EVQLLESGGGLVQPGGSLRLSCAASGFTFSFYYMVWVRQAPGKGLEWVSVIYPSGGITVYADSVKGRFTISRDNSKNTLYLQMNSLRAEDTAVYYCARDKWAVMPPYYYYAMDVWGQGTTVTVSS
VL: DIQMTQSPSSLSASVGDRVTITCRASQSIRNYLNWYQQKPGKAPNLLIYAASTLQSGVPARFSGSGSGTDFTLTISSLQPEDFATYYCQQLSGYPHTFGQGTKLEIK
notes: Group 3 antibody; also called M06-D09; 559A-M06-D09
For B9, in assay [13], the “fold increase of Ki,app against the wild type catalytic domain” value was around 5 fold.

B10: M162-A04 (IgG) (antibody, V domains shown)
VH: EVQLLESGGGLVQPGGSLRLSCAASGFTFSHYIMMWVRQAPGKGLEWVSGIYSSGGITVYADSVKGRFTISRDNSKNTLYLQMNSLRAEDTAVYYCAYRRTGIPRRDAFDIWGQGTMVTVSS
VL: DIQMTQSPSTLSASVGDRVTITCRASQSISSWLAWYQQKPGKAPNLLIYKASTLESGVPSRFSGSGSGTEFTLTISSLQPDDFATYYCQQYNTYWTFGQGTKVEIK
notes: Human IgG; also called R84-H05; 559A-M0162-A04
Regarding B10, the Ki in the assay with human plasma kallikrein [7], in the assay with mouse plasma kallikrein [1] and with rat plasma kallikrein [14] was 2 nM throughout.

Values taken from patent US9266964.
